Results taken from IntAct's records for PubMed 35266954.

Legend:
[1] = target: 1433t_human YWHAQ (UniProt P27348)
[2] = target: trim1_human MID2 (UniProt Q9UJV3)
Sequence of UniProt Q9UJV3 (Q9UJV3 whole entry): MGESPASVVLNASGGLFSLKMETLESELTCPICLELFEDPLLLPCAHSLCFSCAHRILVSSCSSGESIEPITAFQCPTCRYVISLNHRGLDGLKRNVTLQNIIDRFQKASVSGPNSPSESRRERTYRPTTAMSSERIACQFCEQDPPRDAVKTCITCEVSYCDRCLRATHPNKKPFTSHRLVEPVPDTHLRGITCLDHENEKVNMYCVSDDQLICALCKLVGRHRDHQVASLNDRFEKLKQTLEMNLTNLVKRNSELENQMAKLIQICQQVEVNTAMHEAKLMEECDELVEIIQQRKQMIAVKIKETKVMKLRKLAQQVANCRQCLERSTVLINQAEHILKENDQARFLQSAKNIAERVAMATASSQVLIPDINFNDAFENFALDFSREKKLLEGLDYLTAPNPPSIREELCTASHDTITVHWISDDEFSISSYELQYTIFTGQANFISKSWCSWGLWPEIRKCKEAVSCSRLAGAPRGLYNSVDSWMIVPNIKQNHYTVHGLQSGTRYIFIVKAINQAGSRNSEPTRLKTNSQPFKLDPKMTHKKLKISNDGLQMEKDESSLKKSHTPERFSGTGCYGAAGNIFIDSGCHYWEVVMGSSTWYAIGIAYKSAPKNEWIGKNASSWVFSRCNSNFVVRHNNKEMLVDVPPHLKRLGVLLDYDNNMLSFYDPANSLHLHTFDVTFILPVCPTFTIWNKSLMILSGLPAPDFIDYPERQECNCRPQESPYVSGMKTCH

Sequence of UniProt P27348 (P27348 whole entry): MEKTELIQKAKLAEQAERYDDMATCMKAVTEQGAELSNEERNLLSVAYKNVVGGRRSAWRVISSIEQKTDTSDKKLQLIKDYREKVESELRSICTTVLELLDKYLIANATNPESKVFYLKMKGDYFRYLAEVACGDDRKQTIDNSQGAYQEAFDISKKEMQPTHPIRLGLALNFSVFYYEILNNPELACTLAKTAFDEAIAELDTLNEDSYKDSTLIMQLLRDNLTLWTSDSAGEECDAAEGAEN

effect of a mutation on the interaction [1]	effect of a mutation on the interaction [2]	Substance
disrupting interaction strength	–	Leucine-rich repeat serine/threonine-protein kinase 2 (Homo sapiens), Q5S007 S910D;S935D
–	with no effect	Leucine-rich repeat serine/threonine-protein kinase 2 (Homo sapiens), Q5S007 G2019S
disrupting interaction strength	–	Leucine-rich repeat serine/threonine-protein kinase 2 (Homo sapiens), Q5S007 S910A;S935A
disrupting interaction strength	–	Leucine-rich repeat serine/threonine-protein kinase 2 (Homo sapiens), Q5S007 R1441C
